Data on 41 variants can be found in the Human Domainome abundance scans (Beltran et al. 2025).

± gives the uncertainty stated by the source.

Sequences and labels used below:
B1: PMS1 protein homolog 1, residues 572 to 637; numbered along this chain, P54277 (parent)
chain: KKPMSASALFVQDHRPQFLIENPKTSLEDATLQIEELWKTLSEEEKLKYEEKATKDLERYNSQMKR

This data set covers variants of B1. The experiment in a line: abundance fitness (aPCA) (normalised: wild type 0, dead -1); higher = more abundant; growth selection in yeast, the domain comes from the species named. The settings on record: Homo sapiens.
As to KKPMSASALFVQDHRPQFLIENPKTSLEDATLQIEELWKTLSEEEKLKYEEKATKDLERYNSQMIR, the abundance fitness was -0.25 ± 0.2.
On to KKPMSASALFVQDHRPQFLIENPKTSLEDATLQIEELWKTLSEEEKLKYEEKATKDLERYNSQMTR, for which the abundance fitness was -0.264 ± 0.18.
As to KKPMSASALFVQDHRPQFLIENPKTSLEDATLQIEELWKTLSEEEKLKYEEKATKDLERYNSQMGR, the abundance fitness is -0.497 ± 0.19.
With KKPMSASALFVQDHRPQFLIENPKTSLEDATLQIEELWKTLSEEEKLKYEEKATKDLERYNSQMYR, the abundance fitness was -0.207 ± 0.19.
Take KKPMSASALFVQDHRPQFLIENPKTSLEDATLQIEELWKTLSEEEKLKYEEKATKDLERYNSQMFR: the abundance fitness was -0.276 ± 0.22.
Take KKPMSASALFVQDHRPQFLIENPKTSLEDATLQIEELWKTLSEEEKLKYEEKATKDLERYNSQMPR: the abundance fitness amounted to 0.009 ± 0.13.
For KKPMSASALFVQDHRPQFLIENPKTSLEDATLQIEELWKTLSEEEKLKYEEKATKDLERYNSQMNR, the abundance fitness is -0.163 ± 0.12.
With KKPMSASALFVQDHRPQFLIENPKTSLEDATLQIEELWKTLSEEEKLKYEEKATKDLERYNSQMLR, the abundance fitness stood at 0.029 ± 0.081.
Regarding KKPMSASALFVQDHRPQFLIENPKTSLEDATLQIEELWKTLSEEEKLKYEEKATKDLERYNSQMQR, the abundance fitness came to 0.02 ± 0.11.
KKPMSASALFVQDHRPQFLIENPKTSLEDATLQIEELWKTLSEEEKLKYEEKATKDLERYNSQMMR: the abundance fitness was -0.237 ± 0.12.
As for KKPMSASALFVQDHRPQFLIENPKTSLEDATLQIEELWKTLSEEEKLKYEEKATKDLERYNSQMDR, the abundance fitness is 0.084 ± 0.2.
For the variant KKPMSASALFVQDHRPQFLIENPKTSLEDATLQIEELWKTLSEEEKLKYEEKATKDLERYNSQMRR, the abundance fitness is -0.086 ± 0.12.
In the case of KKPMSASALFVQDHRPQFLIENPKTSLEDATLQIEELWKTLSEEEKLKYEEKATKDLERYNSQMKL, the abundance fitness is 0.012 ± 0.088.
With KKPMSASALFVQDHRPQFLIENPKTSLEDATLQIEELWKTLSEEEKLKYEEKATKDLERYNSQMKK, the abundance fitness was -0.152 ± 0.33.
Turning to KKPMSASALFVQDHRPQFLIENPKTSLEDATLQIEELWKTLSEEEKLKYEEKATKDLERYNSQMKP, the abundance fitness was 0.082 ± 0.1.
As for KKPMSASALFVQDHRPQFLIENPKTSLEDATLQIEELWKTLSEEEKLKYEEKATKDLERYNSQMKA, the abundance fitness is 0.067 ± 0.082.
Regarding KKPMSASALFVQDHRPQFLIENPKTSLEDATLQIEELWKTLSEEEKLKYEEKATKDLERYNSQMKG, the abundance fitness was 0.054 ± 0.11.
The result for KKPMSASALFVQDHRPQFLIENPKTSLEDATLQIEELWKTLSEEEKLKYEEKATKDLERYNSQMKE reads 0.031 ± 0.17.
KKPMSASALFVQDHRPQFLIENPKTSLEDATLQIEELWKTLSEEEKLKYEEKATKDLERYNSQMKM: the abundance fitness turned out to be 0.044 ± 0.14.
Take KKPMSASALFVQDHRPQFLIENPKTSLEDATLQIEELWKTLSEEEKLKYEEKATKDLERYNSQMKI: the abundance fitness was -0.697 ± 0.43.
The result for KKPMSASALFVQDHRPQFLIENPKTSLEDATLQIEELWKTLSEEEKLKYEEKATKDLERYNSQMKF reads 0.095 ± 0.17; that for KKPMSASALFVQDHRPQFLIENPKTSLEDATLQIEELWKTLSEEEKLKYEEKATKDLERYNSQMKS, -0.063 ± 0.12.
With KKPMSASALFVQDHRPQFLIENPKTSLEDATLQIEELWKTLSEEEKLKYEEKATKDLERYNSQMKC the figure was -0.113 ± 0.16; with KKPMSASALFVQDHRPQFLIENPKTSLEDATLQIEELWKTLSEEEKLKYEEKATKDLERYNSQMKN, 0.031 ± 0.34; with KKPMSASALFVQDHRPQFLIENPKTSLEDATLQIEELWKTLSEEEKLKYEEKATKDLERYNNQMKR, 0.017 ± 0.12.
As to KKPMSASALFVQDHRPQFLIENPKTSLEDATLQIEELWKTLSEEEKLKYEEKATKDLERYNKQMKR, the abundance fitness amounted to 0.049 ± 0.078.
On to KKPMSASALFVQDHRPQFLIENPKTSLEDATLQIEELWKTLSEEEKLKYEEKATKDLERYNEQMKR, for which the abundance fitness is -0.035 ± 0.11.
For the variant KKPMSASALFVQDHRPQFLIENPKTSLEDATLQIEELWKTLSEEEKLKYEEKATKDLERYNQQMKR, the abundance fitness is -0.027 ± 0.085.
On to KKPMSASALFVQDHRPQFLIENPKTSLEDATLQIEELWKTLSEEEKLKYEEKATKDLERYNGQMKR, for which the abundance fitness was -0.151 ± 0.074.
KKPMSASALFVQDHRPQFLIENPKTSLEDATLQIEELWKTLSEEEKLKYEEKATKDLERYNYQMKR: the abundance fitness was -0.104 ± 0.096.
In the case of KKPMSASALFVQDHRPQFLIENPKTSLEDATLQIEELWKTLSEEEKLKYEEKATKDLERYNHQMKR, the abundance fitness came out at 0.021 ± 0.14.
On to KKPMSASALFVQDHRPQFLIENPKTSLEDATLQIEELWKTLSEEEKLKYEEKATKDLERYNFQMKR, for which the abundance fitness was -0.067 ± 0.078.
Take KKPMSASALFVQDHRPQFLIENPKTSLEDATLQIEELWKTLSEEEKLKYEEKATKDLERYNVQMKR: the abundance fitness is -0.078 ± 0.063.
KKPMSASALFVQDHRPQFLIENPKTSLEDATLQIEELWKTLSEEEKLKYEEKATKDLERYNWQMKR: the abundance fitness is -0.084 ± 0.15.
For the variant KKPMSASALFVQDHRPQFLIENPKTSLEDATLQIEELWKTLSEEEKLKYEEKATKDLERYNMQMKR, the abundance fitness is -0.099 ± 0.098.
With KKPMSASALFVQDHRPQFLIENPKTSLEDATLQIEELWKTLSEEEKLKYEEKATKDLERYNRQMKR the figure was -0.09 ± 0.11; with KKPMSASALFVQDHRPQFLIENPKTSLEDATLQIEELWKTLSEEEKLKYEEKATKDLERYNPQMKR, -0.148 ± 0.09; with KKPMSASALFVQDHRPQFLIENPKTSLEDATLQIEELWKTLSEEEKLKYEEKATKDLERYNTQMKR, -0.227 ± 0.093.
For KKPMSASALFVQDHRPQFLIENPKTSLEDATLQIEELWKTLSEEEKLKYEEKATKDLERYNLQMKR, the abundance fitness was -0.071 ± 0.071.
In the case of KKPMSASALFVQDHRPQFLIENPKTSLEDATLQIEELWKTLSEEEKLKYEEKATKDLERYNIQMKR, the abundance fitness was -0.249 ± 0.14.
On to KKPMSASALFVQDHRPQFLIENPKTSLEDATLQIEELWKTLSEEEKLKYEEKATKDLERYNDQMKR, for which the abundance fitness was -0.115 ± 0.15.
